# T1: TASOR fragment (residues 1014–1095) (human, UniProt Q9UK61-1 1014-1095)
# T1 construct: codon-optimized synthetic gene; untagged; Residues 1055–1071 are disordered in the crystal structure; also called untagged TASOR fragment; minimal core TASOR; source: E. coli BL21 (DE3), co-expressed with His6-Periphilin fragments from pRSF-Duet, co-purified with Periphilin
# T1 sequence (looked up): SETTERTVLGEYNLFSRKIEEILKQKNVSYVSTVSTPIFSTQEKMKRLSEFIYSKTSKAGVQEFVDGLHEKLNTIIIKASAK
# Key:
# [1] = biological target: T1, TASOR fragment (residues 1014–1095); test: native MS; non-denaturing mass spectrometry of the His6-Periphilin 285–374 / TASOR 1014–1095 complex; conditions not shown; settings: both partners purified
# [2] = biological target: T1, TASOR fragment (residues 1014–1095); test: SEC-MALS; minimal Periphilin-TASOR core complex; Superdex 200 10/300 in PBS, 293 K, 0.5 ml/min; settings: both partners purified
# [3] = biological target: the molecule itself; test: crystal structure; Periphilin 292–367 with TASOR 1014–1095; sitting drop, 18°C, 0.1 M citrate pH 4.5, 1 M ammonium sulfate; SAD phasing with Br; refined at 2.5 Å
Binder,stoichiometry N [1] [Periphilin per TASOR],stoichiometry N [2] [Periphilin per TASOR],binding result [3]
"His6-tagged Periphilin residues 285–374 (domain or fragment, human, UniProt Q8NEY8-2 285-374, looked up, codon-optimized synthetic gene; Construct used for NMR and native mass spectrometry of the Periphilin-TASOR complex; not shown: His6, N-terminal, kept) GIELFEDSQLTTRSKAIASKTKEIEQVYRQDCETFGMVVKMLIEKDPSLEKSIQFALRQNLHEIGERCVEELKHFIAEYDTSTQDFGEPF",2,,
"Periphilin fragment (residues 292–367) (domain or fragment, human, UniProt Q8NEY8-2 292-367, looked up, codon-optimized synthetic gene; preceded by a His6 tag and a TEV site (ENLYFQG), digested with TEV protease; Two copies of this chain form a homodimer in the 2:1 complex with TASOR; A residue of the TEV site (G) may remain at the N-terminus after cleavage; not shown: His6, N-terminal, cleaved) SQLTTRSKAIASKTKEIEQVYRQDCETFGMVVKMLIEKDPSLEKSIQFALRQNLHEIGERCVEELKHFIAEYDTST",,2,binds
